For assay [1], the target named is IL-13RA2 huFc (human). In words: SPR (Biacore T200), ligand IL13Ra2 on the chip, scFv_Fc as analyte at 6.25 to 100 nM, 1:1 binding fit, flow 30 ul/min. In general terms: In SPR one partner is held on a chip, and binding of the other changes the refractive index at the surface.
The target in assay [2] is IL-13RA2 huFc (human). In words: SPR (Biacore T200), scFv_Fc forms on IL-13RA2 huFc, summary table.
Assay [3] deals with T1, IL-13RA2 endogenously expressed on U251 cells (human) (UniProt Q14627).
T1 sequence (looked up): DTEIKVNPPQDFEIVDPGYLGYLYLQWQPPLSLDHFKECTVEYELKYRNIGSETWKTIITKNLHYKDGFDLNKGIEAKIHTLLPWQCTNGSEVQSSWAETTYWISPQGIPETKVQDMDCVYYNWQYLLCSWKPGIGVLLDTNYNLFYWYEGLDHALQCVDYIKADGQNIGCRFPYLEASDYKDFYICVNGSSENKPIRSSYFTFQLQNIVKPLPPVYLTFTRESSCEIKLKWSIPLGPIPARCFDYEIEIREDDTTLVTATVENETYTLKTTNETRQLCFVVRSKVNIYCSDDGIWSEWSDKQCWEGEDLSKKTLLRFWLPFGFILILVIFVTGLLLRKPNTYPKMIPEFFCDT
In words: flow cytometry on U251 cells, scFv_Fc form, 5-fold dilutions from 2,000 nM, FITC anti-human IgG. For orientation: Flow cytometry measures light scatter and fluorescence of single cells or particles in a stream.

Consider one molecule from patent publication US20190359723A1.

Usually Kd stands for the constant that tells how readily two partners part at equilibrium. Low values mean tighter binding, high ones weaker binding. Broadly, the koff is the first-order rate constant of dissociation. A higher koff goes with fast dissociation. As usually defined, the kon is a measure of how fast the partners come together. Lower therefore signals slower complex formation. In general, EC50 refers to the concentration needed to bring the measured effect to its halfway point. High values mean weaker potency, low ones greater potency.

B1: 2D3 (scFv_Fc form) (Fc fusion, not shown: a dimerising Fc or GST)
scFv: EVQLLESGGGLVQPGGSLRLSCAASGFTFRRPAMTWVRQAPGKGLEWVSAITGSGGSTYYADSVKGRFTISRDNSKNTLYLQMNSLRAEDTAVYYCVKVRYGWGAGAFDYWGQGTLVTVSSGGGGSGGGGSGGGGSDIQMTQSPSTLSASVGDRVTITCRASQSISSWLAWYQQKPGKAPKLLIYDASSLESGVPSRFSGSGSGTEFTLTISSLQPDDFATYYCQQYDTYPPITFGQGTKVEIK
Consider B1, for which, in assay [1], the Kd amounted to 0.348 nM, the koff is 0.000196 s⁻¹ and the kon was found to be 563000 M⁻¹ s⁻¹. For the same molecule, in assay [2], the equilibrium dissociation constant (Kd) is 0.348 nM, the koff turned out to be 0.000196 s⁻¹ and the kon amounted to 563000 M⁻¹ s⁻¹. In assay [3], this molecule displayed an EC50 of 0.33 nM.
